Laboratory results reported in paper PMC4379030.

Legend:
[1] = biological target: CaM-free full-length murine inducible nitric-oxide synthase, expressed and purified in the absence of CaM (murine) (UniProt P29477)
[2] = biological target: CaM-free full-length murine inducible nitric-oxide synthase, expressed and purified in the absence of CaM (murine) (UniProt P29477); assay: ITC; single injection mode; 20 μM iNOSfl (-CaM) (dissolved in 200 μl) against 8 μM CaM (dissolved in 2 ml); 40 mM EPPS, 10% glycerol, 150 mM NaCl, 2 mM Ca2+; single-site binding model

Chain of UniProt P29477 (P29477 whole entry): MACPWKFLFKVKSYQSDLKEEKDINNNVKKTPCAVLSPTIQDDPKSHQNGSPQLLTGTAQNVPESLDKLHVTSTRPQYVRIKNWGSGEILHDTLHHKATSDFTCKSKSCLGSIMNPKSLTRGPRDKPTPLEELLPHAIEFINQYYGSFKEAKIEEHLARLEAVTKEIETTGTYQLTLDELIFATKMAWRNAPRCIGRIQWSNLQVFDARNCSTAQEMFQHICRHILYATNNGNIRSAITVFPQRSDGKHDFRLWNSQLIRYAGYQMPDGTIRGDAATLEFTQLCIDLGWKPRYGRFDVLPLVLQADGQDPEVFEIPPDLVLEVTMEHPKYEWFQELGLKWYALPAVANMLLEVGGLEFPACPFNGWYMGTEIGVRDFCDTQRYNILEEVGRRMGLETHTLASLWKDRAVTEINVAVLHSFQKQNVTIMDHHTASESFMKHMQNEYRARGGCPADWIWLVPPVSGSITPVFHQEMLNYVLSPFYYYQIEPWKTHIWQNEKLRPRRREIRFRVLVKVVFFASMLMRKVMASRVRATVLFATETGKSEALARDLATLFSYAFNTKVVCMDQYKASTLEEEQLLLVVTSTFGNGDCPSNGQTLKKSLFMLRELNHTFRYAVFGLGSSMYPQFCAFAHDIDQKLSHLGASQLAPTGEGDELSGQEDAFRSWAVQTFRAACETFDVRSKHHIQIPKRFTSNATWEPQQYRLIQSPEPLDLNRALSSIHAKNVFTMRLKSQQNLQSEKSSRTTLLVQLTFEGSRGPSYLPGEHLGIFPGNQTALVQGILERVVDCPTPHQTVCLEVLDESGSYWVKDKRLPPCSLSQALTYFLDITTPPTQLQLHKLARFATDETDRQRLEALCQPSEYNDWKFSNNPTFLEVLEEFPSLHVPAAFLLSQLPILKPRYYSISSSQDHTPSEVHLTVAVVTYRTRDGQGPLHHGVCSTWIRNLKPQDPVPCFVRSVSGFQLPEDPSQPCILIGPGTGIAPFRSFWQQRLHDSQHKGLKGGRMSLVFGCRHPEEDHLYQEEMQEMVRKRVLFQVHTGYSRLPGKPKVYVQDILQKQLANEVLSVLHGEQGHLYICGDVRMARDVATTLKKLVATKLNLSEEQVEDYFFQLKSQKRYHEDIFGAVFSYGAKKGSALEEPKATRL

steady-state NO synthesis activity (oxyhemoglobin assay, 1 μM CaM in the assay buffer, 25°C) (min^-1 per μg of protein) [1]: 10.8 | dH [2]: 489 kcal/mol
Substance: calmodulin (added in vitro) (from UniProt P0DP23 1-149) (natural protein)
